T1: DGI-2 polypeptide (UniProt Q15004 1-111, limits assumed)
T1 construct: Vector-derived residues or tag of pIVEX2.3 are not described for this construct; also called KIAA0101
T1 sequence (looked up): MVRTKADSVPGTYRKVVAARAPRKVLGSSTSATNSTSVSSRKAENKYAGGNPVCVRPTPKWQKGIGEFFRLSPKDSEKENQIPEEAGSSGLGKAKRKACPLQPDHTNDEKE

T2: DGI-9 (HEC) (UniProt O14777 1-642, limits assumed)
T2 sequence (looked up): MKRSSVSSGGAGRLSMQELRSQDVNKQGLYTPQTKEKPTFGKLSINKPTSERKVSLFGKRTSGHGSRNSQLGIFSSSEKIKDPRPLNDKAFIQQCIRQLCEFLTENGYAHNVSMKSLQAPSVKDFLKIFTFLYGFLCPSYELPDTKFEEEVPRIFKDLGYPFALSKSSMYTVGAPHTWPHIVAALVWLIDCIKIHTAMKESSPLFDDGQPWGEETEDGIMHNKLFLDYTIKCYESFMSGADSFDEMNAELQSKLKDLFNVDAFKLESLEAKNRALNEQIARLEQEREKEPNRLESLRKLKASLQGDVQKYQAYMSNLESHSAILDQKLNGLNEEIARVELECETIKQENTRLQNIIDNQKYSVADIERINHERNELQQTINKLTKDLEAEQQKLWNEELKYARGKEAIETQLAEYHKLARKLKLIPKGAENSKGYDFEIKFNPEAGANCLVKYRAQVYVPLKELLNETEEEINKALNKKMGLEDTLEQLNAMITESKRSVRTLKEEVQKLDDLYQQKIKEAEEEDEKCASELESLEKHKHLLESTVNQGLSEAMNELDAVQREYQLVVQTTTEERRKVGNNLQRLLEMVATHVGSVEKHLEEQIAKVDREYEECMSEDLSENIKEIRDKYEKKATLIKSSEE

B1: DGI-2-40F-3-A1 (SEQ ID NO: 187) (peptide)
peptide: QYFARGSFQFGLSHVLSAAAAFHLYVFCKRLSRGFGIKDDAAAGAPVPYPDPLEPRP
notes: not shown: phage gene III coat protein (pCANTAB5E)
B2: DGI-2-40F-3-A8 (peptide)
peptide: GQISLAGVAVCSSERMLLAFSSRVFLPGLKVPVTTSQRGSAAAGAPVPYPDPLEPRP
notes: as for B1
B3: DGI-2-40F-3-A12 (peptide)
peptide: RRTQPAYRSGADDRTSGFYCYVTSALSAGAWMPFLPRRLAAAAGAPVPYPDPLEPRP
notes: as for B1
B4: DGI-2-40F-3-B5 (peptide)
peptide: RSRSSSGASGSMLRVQNHMVLGSWMVRQPMGSMTPFHGHGAAAGAPVPYPDPLEPRP
notes: as for B1
B5: DGI-2-40F-3-D1 (peptide)
peptide: MGQGFHYNRQPYMSHQCYAFTFSTPFLDGDRIPHGVSRGLAAAGAPVPYPDPLEPRP
notes: as for B1
B6: DGI-2-40F-3-B95 (peptide)
peptide: DYKTCVSQHVHPLFGEYFYHKVTHMSILSPTFRVTSLYGKAAAGAPVPYPDPLEPRP
notes: as for B1
B7: DGI9-20M-4-A414 (peptide)
peptide: FLLQDFIMDAGSFVKPIGVGGAPVPYPDPLEPR
notes: library 20F; not shown: phage gene III coat protein (pCANTAB5E)
B8: DGI-2-40F-3-B1 (peptide)
peptide: HGTRLRGVDYVMTWAGWQGYSSRKHVQQAVAGSSPGSDELAAAGAPVPYPDPLEPRP
notes: as for B1
B9: DGI-2-40F-3-C52 (peptide)
peptide: GLLFTSSPYQCFWVHCTLTMSPLSVLGDLSSTIGRMRASRAAAGAPVPYPDPLEPRP
notes: as for B1
B10: DGI-2-40F-3-B6 (peptide)
peptide: QSNVWVLVGVIMQGVWYQRQHYCVYVMLLSDQVSVLLAVAAAAGAPVPYPDPLEPRP
notes: as for B1
B11: DGI9-20M-4-E3 (peptide)
peptide: MAGFRGSGLSGYSEARLPRVGAPVPYPDPLEPR
notes: as for B7
B12: DGI9-20M-4-A12 (peptide)
peptide: SRLALSSQHGLSLVAGRRRGGAPVPYPDPLEPR
notes: library 20R (the E-tag is described for library 20F); not shown: phage gene III coat protein (pCANTAB5E)
B13: DGI-2-40F-3-D3 (peptide)
peptide: VQFAMTLSSRLWQHARHPLTDDAPPTVSFGTRRETLAGKAAAAGAPVPYPDPLEPRP
notes: as for B1
B14: DGI9-20M-4-A627 (peptide)
peptide: WDWSRFGAQLRGAILGRATGGAPVPYPDPLEPR
notes: as for B12
B15: DGI-2-40F-3-B4 (peptide)
peptide: LWLPCGLLVRPAQFYFYFSPLRHFLSSSVGSLSFPLSLLVAAAGAPVPYPDPLEPRP
notes: as for B1
B16: DGI-2-40F-3-A7 (peptide)
peptide: CAYRWGLFRGPGRVDYDLQVVGIMMWPGPIPDRSSRGSVAAAAGAPVPYPDPLEPRP
notes: as for B1
B17: DGI-2-40F-3-B72 (peptide)
peptide: PKDGAAFKGSDFIQGGQTVMERAPALWWRDGGGQWEAPSTAAAGAPVPYPDPLEPRP
notes: as for B1

Experiments:
DGI-2 polypeptide [1] = target: T1, DGI-2 polypeptide; experiment: phage ELISA, 405 nm; DGI-2 coated
Description: (§1) For analysis of individual target binders, colonies were picked and phage prepared as described above using helper phage, M13KO7. Ninety-six-well microtiter plates were coated with 500 ng/well of specific target protein, 500 ng/well lactate dehydrogenase (LDH) irrelevant or non-specific target, 500 ng/well of positive control antibody raised against ETAG, and negative control of non-fat milk powder-PBS 2% at 4° C. overnight. Plates were then blocked with 350 microliters/well PBS containing 2% non-fat milk for 1 hr at room temperature. One hundred microliters per well of phage from isolated clones were added and plates were incubated at room temperature for 2 hr after centrifuging samples for 20 minutes at 3500 rpm at 4° C. The phage solution was then removed, and the wells were washed three times with PBS at room temperature. Antibody raised against M13 conjugated to horseradish peroxidase (Pharmacia) was diluted 1:3000 in PBS-Tween and added to each well (100 µl/well). Incubation was for 1 hr at room temperature, followed by washing with PBS-(0.5%) Tween 3 times as described. Color was developed by addition of ABTS solution (100 µl/well; Boehringer, Indianapolis, Ind.). Plates were analyzed at 405 nm. A clone was considered "positive" if the $A405$ of the well was $\geq$2-fold over background.

[2] = target: T3, antibody raised against ETAG; experiment: phage ELISA, 405 nm; anti-E-tag antibody coated
T3 construct: read-out of display; also called E-tag antibody; E tag antibody
Description: as §1

DGI-2 polypeptide [3] = target: T1, DGI-2 polypeptide; experiment: phage ELISA, 405 nm; DGI-2 signal over LDH signal
Description: as §1

DGI-9 (HEC) [4] = target: T2, DGI-9 (HEC); experiment: phage ELISA; DGI-9 coated
[5] = target: T3, antibody raised against ETAG; experiment: phage ELISA; anti-E-tag antibody coated
DGI-9 (HEC) [6] = target: T2, DGI-9 (HEC); experiment: phage ELISA; DGI-9 signal over LDH signal

Row | Binder | DGI-2 (OD) (DGI-2 polypeptide [1]) | ETAG (OD) [2] | DGI-2/LDH (OD) (DGI-2 polypeptide [3]) | DGI-9 (DGI-9 (HEC) [4]) | E-Tag [5] | DGI9/LDH (DGI-9 (HEC) [6])
1 | B1 | 0.8 OD | 2.4 OD | 1.1 ratio |  |  | 
2 | B2 | 0.8 OD | 1.5 OD | 1.1 ratio |  |  | 
3 | B3 | 0.9 OD | 4.6 OD | 1.1 ratio |  |  | 
4 | B4 | 1 OD | 9.2 OD | 1.2 ratio |  |  | 
5 | B5 | 0.8 OD | 4.1 OD | 1 ratio |  |  | 
6 | B6 | 1 OD | 5.4 OD | 1.2 ratio |  |  | 
7 | B7 |  |  |  | 8.7 ratio over background | 32.6 ratio over background | 8.1 ratio
8 | B8 | 0.8 OD | 6.3 OD | 1.2 ratio |  |  | 
9 | B9 | 1 OD | 4.6 OD | 1.3 ratio |  |  | 
10 | B10 | 0.9 OD | 1.8 OD | 1.2 ratio |  |  | 
11 | B11 |  |  |  | 7 ratio over background | 34.5 ratio over background | 7.1 ratio
12 | B12 |  |  |  | 1.9 ratio over background | 20.7 ratio over background | 2.1 ratio
13 | B13 | 0.9 OD | 0.9 OD | 1.1 ratio |  |  | 
14 | B14 |  |  |  | 6 ratio over background | 27.2 ratio over background | 6.5 ratio
15 | B15 | 1 OD | 1.5 OD | 1.1 ratio |  |  | 
16 | B16 | 0.9 OD | 8.7 OD | 1.1 ratio |  |  | 
17 | B17 | 1 OD | 10.4 OD | 1.3 ratio |  |  | 
